Test results from paper PMC2756145.
Residue numbers refer to the chain shown, from its start.

Legend:
[1] = target: T1, Pot1-DBD (Schizosaccharomyces pombe, UniProt O13988 1-389); experiment: filter binding
T1 sequence: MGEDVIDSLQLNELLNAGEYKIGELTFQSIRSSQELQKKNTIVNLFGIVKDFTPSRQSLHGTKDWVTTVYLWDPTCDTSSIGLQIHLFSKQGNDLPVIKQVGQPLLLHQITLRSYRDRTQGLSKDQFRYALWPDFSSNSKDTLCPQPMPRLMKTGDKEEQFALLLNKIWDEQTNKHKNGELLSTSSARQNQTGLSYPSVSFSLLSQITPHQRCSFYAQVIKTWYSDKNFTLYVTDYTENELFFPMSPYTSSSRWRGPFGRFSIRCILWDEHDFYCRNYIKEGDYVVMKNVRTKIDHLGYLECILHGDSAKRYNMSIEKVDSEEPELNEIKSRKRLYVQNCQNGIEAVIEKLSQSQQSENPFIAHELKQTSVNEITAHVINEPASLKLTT

[2] = target: T2, Pot1-DBD_Q91A (Schizosaccharomyces pombe, UniProt O13988 1-389, Q91A); experiment: filter binding
T2 sequence: T1 sequence with Q91A

[3] = target: T3, Pot1-DBD_S123A (Schizosaccharomyces pombe, UniProt O13988 1-389, S123A); experiment: filter binding
T3 sequence: T1 sequence with S123A

[4] = target: T4, Pot1-DBD_L122A (Schizosaccharomyces pombe, UniProt O13988 1-389, L122A); experiment: filter binding
T4 sequence: T1 sequence with L122A

[5] = target: T5, Pot1pC (Schizosaccharomyces pombe, UniProt O13988 178-389); experiment: EMSA
T5 sequence: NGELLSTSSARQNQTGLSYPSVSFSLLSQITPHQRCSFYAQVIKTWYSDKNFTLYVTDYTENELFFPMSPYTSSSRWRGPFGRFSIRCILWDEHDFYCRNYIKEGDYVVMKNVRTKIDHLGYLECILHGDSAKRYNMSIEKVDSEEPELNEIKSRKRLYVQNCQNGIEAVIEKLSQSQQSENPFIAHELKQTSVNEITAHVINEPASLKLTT

GGTTACGGTTAC (ssDNA) [12mer]
Kd [1]: 1 ± 0.1 nM | Kd [2]: 7 ± 0.6 nM | Kd [3]: 30 ± 2 nM | Kd [4]: 90 ± 7 nM | Kd [5]: 700 ± 200 nM
